Assay in all cases: ELISA on coated recombinant antigen, half-maximal binding
In general terms: ELISA stands for enzyme-linked immunosorbent assay.

The target of assay [1] is T1, IsdH (iron-regulated surface determinant protein H), recombinant (Staphylococcus aureus).
T1 construct: also called recombinant IsdH

The target in assay [2] is T2, IsdB (iron-regulated surface determinant protein B), recombinant (Staphylococcus aureus, UniProt A6QG30 41-609).
T2 construct: also called recombinant IsdB
T2 sequence (A6QG30 41-609 limits assumed): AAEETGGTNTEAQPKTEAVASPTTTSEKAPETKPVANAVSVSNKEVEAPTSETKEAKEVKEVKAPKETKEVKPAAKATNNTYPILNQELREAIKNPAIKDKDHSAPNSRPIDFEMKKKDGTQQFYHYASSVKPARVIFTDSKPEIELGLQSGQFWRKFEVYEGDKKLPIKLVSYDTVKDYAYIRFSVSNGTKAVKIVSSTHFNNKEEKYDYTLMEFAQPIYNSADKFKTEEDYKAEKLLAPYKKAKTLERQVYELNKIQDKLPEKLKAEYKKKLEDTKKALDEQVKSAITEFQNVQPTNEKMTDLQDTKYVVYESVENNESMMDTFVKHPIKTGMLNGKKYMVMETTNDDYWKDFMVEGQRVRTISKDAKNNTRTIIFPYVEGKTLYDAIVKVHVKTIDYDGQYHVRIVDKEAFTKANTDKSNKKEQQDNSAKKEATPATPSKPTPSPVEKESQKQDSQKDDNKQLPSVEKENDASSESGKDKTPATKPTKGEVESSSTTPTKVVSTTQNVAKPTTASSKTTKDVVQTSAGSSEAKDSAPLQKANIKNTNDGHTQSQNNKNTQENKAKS

For assay [3], the target named is T3, IsdA (iron-regulated surface determinant protein A), recombinant (Staphylococcus aureus, UniProt P0C1S5 58-316).
T3 construct: also called recombinant IsdA; Isd antigen
T3 chain: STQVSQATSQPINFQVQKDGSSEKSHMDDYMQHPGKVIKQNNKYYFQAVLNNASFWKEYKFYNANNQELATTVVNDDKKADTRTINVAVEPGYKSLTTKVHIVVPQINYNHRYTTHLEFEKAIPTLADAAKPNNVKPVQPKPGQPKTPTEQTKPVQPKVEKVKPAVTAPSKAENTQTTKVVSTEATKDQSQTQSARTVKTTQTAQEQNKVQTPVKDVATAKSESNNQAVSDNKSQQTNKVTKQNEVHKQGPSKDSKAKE

Numbering of substitutions follows the chain as printed.

T1 sequence (Q2FG07 41-864): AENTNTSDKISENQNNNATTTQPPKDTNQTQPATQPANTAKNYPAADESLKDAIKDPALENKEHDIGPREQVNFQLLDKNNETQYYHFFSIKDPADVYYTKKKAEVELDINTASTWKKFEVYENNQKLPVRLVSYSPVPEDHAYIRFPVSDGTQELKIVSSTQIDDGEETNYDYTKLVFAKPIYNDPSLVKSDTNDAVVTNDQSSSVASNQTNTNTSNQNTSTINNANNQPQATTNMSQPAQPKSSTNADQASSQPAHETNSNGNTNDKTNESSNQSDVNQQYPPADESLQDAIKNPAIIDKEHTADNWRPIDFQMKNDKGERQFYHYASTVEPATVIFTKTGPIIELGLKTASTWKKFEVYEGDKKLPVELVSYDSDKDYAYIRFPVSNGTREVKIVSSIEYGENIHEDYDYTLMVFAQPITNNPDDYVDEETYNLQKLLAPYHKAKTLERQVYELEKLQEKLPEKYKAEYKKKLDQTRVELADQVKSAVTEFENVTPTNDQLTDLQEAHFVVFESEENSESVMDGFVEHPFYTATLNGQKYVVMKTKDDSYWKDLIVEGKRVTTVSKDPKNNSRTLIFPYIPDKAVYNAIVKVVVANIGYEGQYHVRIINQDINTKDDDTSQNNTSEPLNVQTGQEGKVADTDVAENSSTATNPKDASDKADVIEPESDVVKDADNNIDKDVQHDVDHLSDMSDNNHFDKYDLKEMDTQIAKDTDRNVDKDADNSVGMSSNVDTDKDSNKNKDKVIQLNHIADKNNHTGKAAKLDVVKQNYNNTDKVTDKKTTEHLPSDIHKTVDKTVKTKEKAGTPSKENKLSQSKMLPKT

B1: STAU-328 (antibody, V domains shown)
VH: QVQLQQWGAGLLKPSETLSLTCAVYGGSFSGYYWSWIRQPPGKGLEWIGEINHSGSTNYNPSLKSRVTISVDTSKNQFSLKLSSVTAADTAVYYCARDVGDRYYFDYWGQGTLVTVSS
VL: QSALTQPASVSGSPGQSITISCTGTSSDVGSYNLVSWYQQHPGKAPKLMIYEGSKRPSGVSNRFSGSKSGNTASLTISGLQAEDEADYYCCSYAGSSTFVVFGGGTKLTVL
A word on the EC50: it is the midpoint of the concentration-response curve. In the case of B1, the results for the concentration giving a half-maximal response (EC50) in assay [1] and in assay [2] were 60 ng/mL and 80 ng/mL, respectively.

B2: STAU-229 (antibody, V domains shown)
VH: EVQLVQSGAEVKKPGATMKISCKVSGYPFTDYYMHWVQQAPGKGLEWMGLIDPEDGETNYAEKFQGRVTITADTSTDTVYMELSSLRSEDTAVYFCAKPHCSSRTCQRVSGYYFGMDVWGQGTLVTVSS
VL: QSALTQPPSASGSPGQSVTISCTGSSNDVGDYNFVSWYQQHPGKPPKLMIYEVTKRPSGVPDRFFGSKSGNTASLTVSGLQADDEADYYCSSYAGGNSVVFGGGTKLTVL
Regarding B2, the EC50 in assay [3] was 700 ng/mL; in assay [2], 10 ng/mL.

B3: STAU-239 (antibody, V domains shown)
VH: QVQLVQSGAEVKKPGSSVKVSCRASGGPFNTYVITWVRQAPGQGLEWMGGIVPVFNTSHSAQKFQGRVKISADTSTNTVYMELTSLTFEDTAVYFCARDGAAAPLNWYDPWGQGTLVTVSS
VL: SYVLTQPPSVSLAPGQTATLTCGGNNIGSKSVHWYQKKPGQAPVLVVYDVRDRPSGIPERFSGSSSENTATLTLSRVEAEDEADYYCQVWESTTSHVIFGGGTKLTVL
As for B3, the results for the EC50 in assay [3] and in assay [2] were 70 ng/mL and 1 ng/mL, respectively.

B4: STAU-139 (antibody, V domains shown)
VH: EVQLVQSGAEVKKPGESLKISCKGSGYSFTSYWIGWVRQMPGKGLEWMGIIYPGDSDTRYSPSFQGQVTISADKSISTAYLQWSSLKASDTAMYYCARPPGLRGDAFDIWGQGTLVTVSS
VL: QSALTQPPSASGSPGQSVTISCTGTSSDVGGYNYVSWYQQHPGKAPKLMIYEVSKRPSGVPDRFSGSKSGNTASLTVSGLQAEDEADYYCSSYAGSNNLVFGGGTKLTVL
As to B4, the EC50 in assay [1] was 2700 ng/mL.

B5: STAU-218 (antibody, V domains shown)
VH: QVTLKESGPVVVKPTETLTLTCTVSDVSLRNVQMGVSWIRQPPGKALEWLAHIFSHDEKAYVTSLENRLTISRDTSNSQVVLTMTNMDPVDTGTYYCARIRSTSGEEEDPFAFWGQGTLVTVSS
VL: DIQMTQSPSSLSASVGDRVTITCRASQSVTTWLAWYQQKPGKAPKLLIYSASSLESGVPSRFSGSGSGTDFTLTISNLQPDDFATYYCQQYRFYWTFGQGTKVESK
As for B5, the figures for the EC50 in assay [3] and in assay [2] were 80 ng/mL and 4100 ng/mL, respectively.

B6: STAU-281 (antibody, V domains shown)
VH: QVQLVQSGAEVKRPGSSVRVSCKDSGDSFRRYVINWVRQAPGQGLEWMGGIIPIFDKAKSVQKFQDRLTITADESTSTSYMELSSLTSEDTAVYYCARKEDGRRDDVFDIWGQGTLVTVSS
VL: EIVMTQSPATLSVSLGERATLSCRASHSVGSSLAWYQQKPGLAPRLLIYGVSTRATGIPARFSGSGSATEFTLTISSLQSEDLAAYHCQQYDNWPFTFGQGTKLEIK
Consider B6, for which the EC50 was 2.7 ng/mL in assay [1] and 2 ng/mL in assay [2].

B7: STAU-407 (antibody, V domains shown)
VH: QLQLQESGPGLVKPSETLSLTCSVSGGSISRTYYYWDWIRQPPGKGLEWIGSVYYSGSTYYNPSLKSRVTMSVDTSKNLFSLKLSSVTAADTAVYYCASHESWQQLISWGQGTLVTVSS
VL: QAVLTQPSSLSASPGASASLTCTLRSGINVGIYRIYWYQQKPGSPPQYLLRYKSDSDKHQGSGVPSRFSGSKDASANAGILLISGLQSEDEADYYCMIWHSSAVAFGGGTKLTVL
As for B7, the EC50 in assay [1] worked out at 3100 ng/mL; in assay [3] it was 1600 ng/mL.

B8: STAU-402 (antibody, V domains shown)
VH: QLQLQESGPGLVKPSETLSLTCTVSGGSISSSSYYWGWIRQPPGKGLEWIGSIYYSGSTYYNPSLKSRVTISVDTSKNQFSLKLSSVTAADTAVYYCARPNSSGWSYYFDYWGQGTLVTVSS
VL: QSVLTQPPSVSGAPGQRVTISCTGTSSNIGADYDVHWYQQLPGTAPKLLIYGNINRPSGVPDRFSGSRSGTSASLAITGLQADDEADYYCQSYDSSLSGSVVFGGGTKLTVL
Take B8: the results for the EC50 in assay [3] and in assay [2] were 8200 ng/mL and 3400 ng/mL, respectively.

B9: STAU-401 (antibody, V domains shown)
VH: QVQLVQSGPEARKPGTSVKVSCKTSGYTFSSYGIAWVRQAPGQGLEWMGWISGYSDYTIYAQRLQGRVSMTTDPYTSTAYMELRSLRPDDTAVYYCATLSFGELVENKLDFWGQGTLVTVSS
VL: B8 VL with D34A, N53T
Regarding B9, the concentration giving a half-maximal response (EC50) was 25100 ng/mL in assay [3] and 3700 ng/mL in assay [2].

B10: STAU-299 (antibody, V domains shown)
VH: QVTLRESGPALVKPTETVTLTCTFSGFSLSTSGMCVTWLRQPPGKALEWLALIDWEDDKYYSTSLKTRFTISKDTSKNQVVLTMTNMDPVDTATYYCARTPTYRGAFDMWGQGTLVTVSS
VL: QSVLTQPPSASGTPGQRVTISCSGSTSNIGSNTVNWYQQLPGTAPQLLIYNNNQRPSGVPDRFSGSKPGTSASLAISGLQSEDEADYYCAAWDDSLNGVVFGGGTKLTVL
In the case of B10, the concentration for a half-maximal effect (EC50) in assay [3] was determined as 220 ng/mL; in assay [2] it was 12700 ng/mL.

B11: STAU-221 (antibody, V domains shown)
VH: QVTLRESGPALVKPTQTLTLTCTFSGFSLTSSGMCVSWIRQPPGKALEWLALIDWDDDKYYITSLKTRLIISKDTSKNQVVLTMTNMDPVDTATYYCARTQSGYSGYYVDYWGQGTLVTVSS
VL: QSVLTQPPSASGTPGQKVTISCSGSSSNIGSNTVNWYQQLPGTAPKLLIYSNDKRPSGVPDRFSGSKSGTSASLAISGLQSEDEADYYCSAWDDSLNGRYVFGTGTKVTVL
As for B11, the figures for the EC50 in assay [3] and in assay [2] were 30 ng/mL and 1900 ng/mL, respectively.

B12: STAU-389 (antibody, V domains shown)
VH: QVQLVQSGAEVKQSGSSLKVSCKVSGGNLRSYGISWVRQAPGQGLEWMGVIIPIFGAPTYAQKFQGRVTFVADDGNNVVFMELSSLRSEDTAVYYCARDWPSITVAVDAINFAMDVWGQGTLVTVSS
VL: QSALTQPRSVSGSPGQSVTISCTGTNNDVGSYDHVSWYQQHPGKAPKFIIYDVSTRPSGVPDRFSGSKSDNTASLTISGLQAEDEADYYCCSFAGSYTYVFGTGTTVTVL
Consider B12, for which the EC50 in assay [1] was 340 ng/mL; in assay [2], 130 ng/mL.

B13: STAU-399 (antibody, V domains shown)
VH: B12 VH with Q13K, S14P, A57T, F70L, V71A, G75S, V78I, I110T, F112Y, A113G
VL: B12 VL with N26S, S31Y, T55K, T106K
On to B13, for which the values for the EC50 in assay [1], in assay [3] and in assay [2] were 950 ng/mL, 8700 ng/mL and 530 ng/mL, respectively.

B14: STAU-280 (antibody, V domains shown)
VH: EVQLVESGGGLVQTGGSLRLSCAASGFTFSRYNMNWVRQAPGKGLEWVSFISATSSSIYYADSVKGRFTISRDNAKNSLDLQMNSLRDEDTAVYFCVREDAAIFGVGSWFDPWGQGTLVTVSS
VL: EIVMTQSPATLSVSPGERATLSCRASQSVSSNLAWYQQKPGQAPRLLIYGASTRATGIPARFSGSGSGTEFTLTISSLQSEDFAVYFCQEYNDWPLYTFGQGTKLEIK
B14: the EC50 in assay [3] worked out at 52100 ng/mL; in assay [2], 7600 ng/mL.

B15: STAU-307 (antibody, V domains shown)
VH: QVQLVQSGAEVKKTGSSVKVSCTASGATFNTNDLMWVRQAPGQGLEWMGGIVPVFGRPKYAKKFHGRLIISADEFTTTFYMELTSLTFDDTAIYYCARSGSTESPIQHIDFWGQGTLVTVSS
VL: SYVLTQPPSVSVAPGQTATITCGGDNIATFSVHWYRQKPGQAPVLVVYDDLDRASGIPARFSGSNSGNTATLTISRVEPGDEADYFCQVWEISSDEYVFGPGTSVTVL
Turning to B15, the half-maximal effective concentration (EC50) was 0.01 ng/mL in assay [1], 10 ng/mL in assay [3] and 0.28 ng/mL in assay [2].

B16: STAU-201 (antibody, V domains shown)
VH: QVQLVQSGPEVKKPGASVKVSCKASGYTFTNYGLTWVRQAPGKGLEWIGWISPYTGRAKFALKFQGRFTLTTDTSTTTAYMEVRSLKSDDSAVYYCAREGIKDASAFDFWGQGTLVTVSS
VL: QSALTQPASVSGSPGQSITISCTGTGSDIGGYNHVSWYHHYPGKAPKLLIFGVTHRPSGVSDRFSGSKSGVTAFLTISGLQAEDEADYYCSSYTDNTSWVFGGGTKVTVL
In the case of B16, the EC50 in assay [3] came to 260 ng/mL; in assay [2], 9500 ng/mL.

B17: STAU-64 (antibody, V domains shown)
VH: EVQLVESGGGLVKPGGSLRLSCAASGFSFSYYSMNWVRQAPGKGLEWISSISSSGEYIYYADSVKGRFTISRDNAENSLYLQMNSLRAEDTAVYYCAKVVSQQSLDYWGQGTLVTVSS
VL: DIVMTQSPSSLSVSVGDRVTITCRASQSISTYLNWYQQKPGKAPKLLISGGSNLQSGVPSRFSGSGSGTDFTLTIISLQPEDFATYYCQQSYSTRYSFGQGTKLEIK
Turning to B17, the EC50 in assay [2] came to 140 ng/mL.

The values are drawn from US20220080036A1 (VANDERBILT UNIVERSITY, published 2022).
